For 1 molecule, activity results are on record in US20250092426, “CAS ENDONUCLEASES AND RELATED METHODS” (Flagship Pioneering Innovations VII, LLC, published 2025).

In the data set the target is T1, CasEnd-16 (synthetic construct).
T1 chain: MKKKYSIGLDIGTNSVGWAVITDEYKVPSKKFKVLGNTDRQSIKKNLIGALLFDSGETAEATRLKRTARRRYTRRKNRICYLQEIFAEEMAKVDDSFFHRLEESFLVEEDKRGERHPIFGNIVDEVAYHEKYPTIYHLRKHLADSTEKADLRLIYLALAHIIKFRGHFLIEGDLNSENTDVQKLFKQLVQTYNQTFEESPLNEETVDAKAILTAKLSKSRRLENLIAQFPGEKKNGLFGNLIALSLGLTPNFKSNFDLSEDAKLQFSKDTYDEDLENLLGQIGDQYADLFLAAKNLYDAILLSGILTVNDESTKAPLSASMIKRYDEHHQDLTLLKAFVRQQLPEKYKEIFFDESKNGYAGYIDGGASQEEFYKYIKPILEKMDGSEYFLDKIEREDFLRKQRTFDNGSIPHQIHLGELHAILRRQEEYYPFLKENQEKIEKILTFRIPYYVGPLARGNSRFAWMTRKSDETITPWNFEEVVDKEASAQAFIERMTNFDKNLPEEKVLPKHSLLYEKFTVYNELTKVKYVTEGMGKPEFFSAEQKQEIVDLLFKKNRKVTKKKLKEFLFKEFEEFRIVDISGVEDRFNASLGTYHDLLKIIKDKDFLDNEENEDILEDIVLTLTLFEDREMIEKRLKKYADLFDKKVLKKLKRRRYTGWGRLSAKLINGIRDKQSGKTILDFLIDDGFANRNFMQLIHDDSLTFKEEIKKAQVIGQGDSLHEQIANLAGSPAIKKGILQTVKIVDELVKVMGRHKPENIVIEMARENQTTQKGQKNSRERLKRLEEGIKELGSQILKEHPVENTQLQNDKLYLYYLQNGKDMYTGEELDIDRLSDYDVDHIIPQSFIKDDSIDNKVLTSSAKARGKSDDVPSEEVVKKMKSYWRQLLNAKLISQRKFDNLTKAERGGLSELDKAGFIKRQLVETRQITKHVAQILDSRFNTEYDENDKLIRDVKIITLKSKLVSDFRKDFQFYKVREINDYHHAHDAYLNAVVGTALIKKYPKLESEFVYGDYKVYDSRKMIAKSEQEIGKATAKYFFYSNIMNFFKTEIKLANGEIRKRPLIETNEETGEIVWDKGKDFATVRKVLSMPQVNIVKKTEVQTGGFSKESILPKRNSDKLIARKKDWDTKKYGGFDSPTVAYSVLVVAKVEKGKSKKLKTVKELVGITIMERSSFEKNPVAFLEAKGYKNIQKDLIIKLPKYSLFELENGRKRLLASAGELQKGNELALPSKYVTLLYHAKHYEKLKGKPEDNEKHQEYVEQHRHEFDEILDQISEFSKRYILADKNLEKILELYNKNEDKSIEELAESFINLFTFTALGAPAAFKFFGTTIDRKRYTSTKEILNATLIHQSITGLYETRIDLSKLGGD
As to the kind of experiment: cell_activity; +++; HEK293T; PAM not stated. How it is done:
The ability of the candidate endonucleases, including endonucleases 1-38 (CasEnds 1-38) (set forth in Table 1 and SEQ ID NOS: 1-38, respectively), to mediate target nucleic acid editing was assessed utilizing a blue fluorescent protein (BFP) to green fluorescent protein (GFP) conversion assay, wherein programmed nucleotide editing of the BFP gene was measured by the expression of GFP (signifying the conversion of […] via the programmed nucleotide edit in the BFP gene). The conversion assay was conducted utilizing the reverse transcriptase-based system (as described above in Example 2) comprising a template RNA (designed to convert BFP to GFP) and a fusion protein comprising a retroviral reverse transcriptase and the individual subject Cas endonuclease. The amino acid sequence of the base portion of the fusion protein (without the individual subject Cas endonuclease) is set forth in Table 7 (SEQ ID NO: 43).
Briefly, 200 ng of plasmid DNA encoding the subject fusion protein (containing one of the subject CasEnds) and 200 ng of template RNA (in plasmid format) were added to 25 μL SF buffer containing 250,000 HEK293T BFP-expressing cells. Nucleofection was mediated utilizing program DS-150. The day of nucleofection was marked as day 0. At day 4, the cells were harvested and analyzed by flow cytometry to assess the level of BFP and GFP expression in HEK293T cells. Cells having GFP signal were defined as having undergone a successful editing event, and the percent of cells that were GFP+ on day 4 was used to determine the performance of each Cas endonuclease.

B1: BFP-to-GFP template RNA ; BFP reporter protospacer (ssRNA ; dsDNA)
RNA: GCCGAAGCACUGCACGCCGUGUUUUAGAGCUAGAAAUAGCAAGUUAAAAUAAGGCUAGUCCGUUAUCAACUUGAAAAAGUGGCACCGAGUCGGUGCACCCUGACGUACGGCGUGCAGUGCUU
DNA 1: GCCGAAGCACTGCACGCCGT
DNA 2: ACGGCGTGCAGTGCTTCGGC
On to B1, for which the activity is ≥ 100 % of reference.
